One assay has as its target HLA-A*32:01. The assay is described as follows: IEDB peptide-MHC binding, purified MHC/competitive/radioactivity; filed as Kd, often an IC50 or EC50 that approximates it; ≥ and ≤ were set here for values at or beyond the usual limits of such assays. The note with it: source organism: Vaccinia virus WR.
A further assay deals with HLA-A*30:01. Described as above. The note with it: source organism: Vaccinia virus WR.
A further assay has as its target HLA-B*15:03. The description is as above.
In the next assay the target is HLA-B*08:01. The assay is described as above. Conditions: source organism: Vaccinia virus WR.
The next assay has as its target HLA-B*15:01. The assay is described as above. Conditions: source organism: Vaccinia virus WR.
The target in the next assay is HLA-A*02:01. In words: IEDB peptide-MHC binding, purified MHC/competitive/fluorescence; ≥ and ≤ were set here for values at or beyond the usual limits of such assays.
Another assay has as its target HLA-A*11:01. The assay is described as above.
The next assay concerns the target HLA-A*24:02. The assay is described as above. Conditions: source organism: Vaccinia virus.
The target in a further assay is HLA-A*03:01. The assay is described as above.
Another assay has as its target HLA-A*68:02. The assay is described as follows: IEDB peptide-MHC binding, purified MHC/competitive/radioactivity; filed as Kd, often an IC50 or EC50 that approximates it; ≥ and ≤ were set here for values at or beyond the usual limits of such assays.
For the next assay, the target named is HLA-B*58:01. In words: IEDB peptide-MHC binding, purified MHC/direct/fluorescence; filed as Kd, often an IC50 or EC50 that approximates it; ≥ and ≤ were set here for values at or beyond the usual limits of such assays. Conditions: source organism: Entamoeba histolytica HM-1:IMSS.
Assay [1] deals with HLA-B*57:01. The assay is described as above. The note with it: source organism: Entamoeba histolytica HM-1:IMSS.
The next assay deals with HLA-A*24:03. The description is as above. Conditions: source organism: Salmonella enterica.
Assay [2] deals with HLA-B*57:01. The assay is described as follows: IEDB peptide-MHC binding, purified MHC/competitive/radioactivity; filed as Kd, often an IC50 or EC50 that approximates it; ≥ and ≤ were set here for values at or beyond the usual limits of such assays.
The target in a further assay is HLA-A*26:01. Described as above. The note with it: source organism: Dengue virus 2 Jamaica/1409/1983.
Another assay has as its target HLA-B*53:01. The description is as above. Conditions: source organism: Dengue virus 1 Brazil/97-11/1997.
The target of another assay is HLA-B*51:01. The description is as above. Conditions: source organism: Dengue virus 2 Jamaica/1409/1983.
The mark [3] stands for this setting: source organism: Vaccinia virus WR.
[4] abbreviates: source organism: Vaccinia virus.
The mark [5] stands for this setting: source organism: Dengue virus 1 Brazil/97-11/1997.
The mark [6] stands for this setting: source organism: Zaire ebolavirus.
[7] abbreviates: source organism: Sudan ebolavirus.
Setting [8] is: source organism: Dengue virus 2 Jamaica/1409/1983.

Consider RLHSNTILK, for which the Kd (usually the concentration at which binding is half-saturated) in the assay with HLA-A*32:01 is 6.35 µM; with HLA-A*30:01, 0.0485 µM; with HLA-B*15:03 (setting [3]), 8.54 µM; in the assay with HLA-B*08:01, not below 38.6 µM; in the assay with HLA-B*15:01, 2.22 µM.

As to LRYLLFGIK, the IC50 (usually the point on the concentration scale where inhibition reaches its midpoint) was not below 825 µM in the assay with HLA-A*02:01 (setting [4]), not below 128 µM in the assay with HLA-A*11:01 (setting [4]), 13.6 µM in the assay with HLA-A*24:02 and 15.4 µM with HLA-A*03:01 (setting [4]).

Take IKVLVEHGF: the Kd with HLA-A*32:01 was 11.3 µM; in the assay with HLA-A*30:01, 5.93 µM; with HLA-B*15:03 (setting [3]) it was 0.473 µM; with HLA-B*08:01 it was not below 77.7 µM; in the assay with HLA-B*15:01 it was 9.69 µM.

VRKNFTSSF: the Kd in the assay with HLA-B*15:03 (setting [3]) was 0.192 µM.

In the case of IKGTSGTEK, the IC50 in the assay with HLA-A*03:01 (setting [4]) is not below 187 µM.

Consider GTAKLRWFV, for which the Kd with HLA-A*68:02 (setting [5]) is 0.0307 µM.

For GKRSNTTGK, the IC50 with HLA-A*02:01 (setting [6]) is not below 14300 µM; with HLA-A*03:01 (setting [6]), 52.6 µM.

As for STHKLSLTK, the IC50 is not below 255 µM in the assay with HLA-A*02:01 (source organism: Variola virus), 0.193 µM in the assay with HLA-A*11:01 (source organism: Variola virus) and 2.93 µM in the assay with HLA-A*03:01 (source organism: Variola virus).

On to TAYEKLWYI, for which the Kd in the assay with HLA-B*58:01 is 0.13 µM; in the assay with HLA-B*57:01 [1], 0.65 µM.

With RKISSKNSM, the Kd with HLA-B*15:03 (setting [3]) was determined as 0.000114 µM.

With RISDRATRK, the IC50 worked out at 0.651 µM in the assay with HLA-A*11:01 (setting [7]) and 1.86 µM with HLA-A*03:01 (setting [7]).

HHQINYHGF registered an equilibrium dissociation constant (Kd) with HLA-A*24:03 of 0.965 µM.

As for KLLEGEESRI, the Kd with HLA-A*68:02 (source organism: Homo sapiens) is not below 60 µM.

As for LGFLNEDHW, the Kd with HLA-B*57:01 [2] (source organism: Murray valley encephalitis virus (strain MVE-1-51)) was determined as 0.172 µM.

As for YAFSKYMSF, the Kd with HLA-B*15:03 (setting [3]) stood at 0.00177 µM; with HLA-B*15:01 it was 0.00899 µM.

As to TTIAVSMANI, the figures for the Kd with HLA-A*26:01 and with HLA-A*68:02 (setting [8]) were 3.51 µM and 0.00387 µM, respectively.

As for IQTMDGQEL, the Kd with HLA-B*15:03 (setting [3]) is 0.144 µM.

As for LKSNADWFF, in the assay with HLA-B*15:03 (source organism: Vaccinia virus Copenhagen), the Kd stood at 0.0102 µM.

For the sequence TSVGKLVHQV, in the assay with HLA-A*68:02 (setting [5]), the dissociation constant Kd is 0.0371 µM.

Turning to IGIGILLTW, the results for the dissociation constant (Kd) with HLA-B*53:01 and with HLA-B*57:01 [2] (setting [5]) were 5.45 µM and 0.272 µM, respectively.

In the case of ISTYPGNTF, the Kd in the assay with HLA-B*15:03 (setting [3]) stood at 0.000479 µM.

ITGGRRTRR: the IC50 in the assay with HLA-A*02:01 (setting [6]) is not below 177 µM; with HLA-A*11:01 (setting [6]), 9.09 µM; with HLA-A*03:01 (setting [6]) it was 6.85 µM.

In the case of AEMMAPSMF, in the assay with HLA-B*15:03 (setting [3]), the dissociation constant (Kd) worked out at 0.0172 µM.

ETILELTDAL: the figures for the dissociation constant Kd with HLA-A*26:01 and with HLA-A*68:02 (setting [8]) were 0.277 µM and 0.134 µM, respectively.

As to ESHNQTFLI, in the assay with HLA-A*68:02 (setting [8]), the Kd was determined as 0.00351 µM.

Regarding GIYIEGLMH, the IC50 was not below 180 µM with HLA-A*02:01 (setting [6]), 9.23 µM in the assay with HLA-A*11:01 (setting [6]) and 16.1 µM with HLA-A*03:01 (setting [6]).

Regarding FSPGTSGSPI, the Kd in the assay with HLA-A*68:02 (setting [8]) came out at 0.294 µM; with HLA-B*51:01 it was 12.8 µM.

For ASLTPKAQR, the IC50 with HLA-A*11:01 (source organism: Variola virus) was 0.29 µM; in the assay with HLA-A*03:01 (source organism: Variola virus) it was 2.32 µM.

For the sequence MLMFIFTGI, the Kd is 1.45 µM with HLA-A*32:01; 0.281 µM in the assay with HLA-A*30:01; 1.01 µM with HLA-B*15:03 (setting [3]); 0.265 µM with HLA-B*08:01; 1.41 µM with HLA-B*15:01.
